In patent US20240271119A1 (BROAD INSTITUTE, published 2024):
Changes are numbered by the printed parent chain. Names and notes keep the numbering of the source.

Key:
[1] = target: YibK-SH2 (periplasmic, from SS-YibK-SH2); assay: cell-based or functional assay
[2] = target: YibK(V139R)-SH2 (periplasmic, from SS-YibK(V139R)-SH2); assay: cell-based or functional assay
[3] = target: the molecule itself; assay: Western blot of whole-cell lysate with and without DTT
[4] = target: GCN4(7P14P)-SH2 (periplasmic, from SSPelB-GCN4(7P14P)-SH2, pMM95a) (yeast); assay: cell-based or functional assay
[5] = target: CadC1-155-Leu(16)TM-GCN4(7P14P) (pMM114a) (E. coli; yeast); assay: cell-based or functional assay

## YibK-SH2 (periplasmic, from SS-YibK-SH2)
[1]
  PcadBA transcriptional activation (LuxAB luminescence): 66 fold
  overnight phage propagation: > 1000 fold

## YibK(V139R)-SH2 (periplasmic, from SS-YibK(V139R)-SH2)
[2]
  PcadBA-directed LuxAB expression: > 8 fold loss

B1: YibK(V139R R146C)-SH2 (periplasmic, pMM103g) (other)
chain: MLDIVLYEPEIPQNTGNIIRLCANTGFRLHLIEPLGFTWDDKRLRRSGLDYHEFAEIKRHKTFEAFLESEKPKRLFALTTKGCPAHSQVKFKLGDYLMFGPETRGIPMSILNEMPMEQKIRIPMTANSRSMNLSNSVARTVYEAWCQLGYKGAVNLPEVKGGSGGSGGSGGSGGSSLEKHSWYHGPVSRNAAEYLLSSGINGSFLVRESESSPGQRSISLRYEGRVYHYRINTASDGKLYVSSESRFNTLAELVHHHSTVADGLITTLHYPAPKR
[3]
  binding result: binds

B2: Ω-graft-SH2 (periplasmic, from SS-Ω-graft-SH2) (scFv)
scFv: RDIVMTQSPSSLSASVGDRVTITCRSSTGAVTTSNYASWVQEKPGKLFKGLIGGTNNRAPGVPSRFSGSLIGDKATLTISSLQPEDFATYFCALWYSNHWVFGQGTKVELKRGGGGSGGGGSGGGGSSGGGSEVKLLESGGGLVQPGGSLKLSCAVSGFSLTDYGVNWVRQAPGRGLEWIGVIWGDGITDYNSALKDRFIISKDDCENTVYLQMSKVRSDDTALYYCVTGLFDYWGQGTLVTVSSGGSGGSGGSGGSGGSSLEKHSWYHGPVSRNAAEYLLSSGINGSFLVRESESSPGQRSISLRYEGRVYHYRINTASDGKLYVSSESRFNTLAELVHHHSTVADGLITTLHYPAPKR
[4]
  PcadBA-driven LuxAB expression: 30 fold
  phage enrichment in mock selection (PACE 12 hours or two PANCE passages): > 1000 fold

B3: Ω-graft(L231F F232A)-SH2 (periplasmic, from SS-Ω-graft(L231F F232A)-SH2) (scFv)
scFv: B2 scFv with L231F, F232A
[4]
  PcadBA transcriptional activation (LuxAB) (fold decrease): 55

B4: Ω-graft scFv variant 37o5c2.1 (R1C F232A) (scFv)
scFv: CDIVMTQSPSSLSASVGDRVTITCRSSTGAVTTSNYASWVQEKPGKLFKGLIGGTNNRAPGVPSRFSGSLIGDKATLTISSLQPEDFATYFCALWYSNHWVFGQGTKVELKRGGGGSGGGGSGGGGSSGGGSEVKLLESGGGLVQPGGSLKLSCAVSGFSLTDYGVNWVRQAPGRGLEWIGVIWGDGITDYNSALKDRFIISKDDCENTVYLQMSKVRSDDTALYYCVTGLADYWGQGTLVTVSS
[5]
  overnight phage enrichment: 1000 fold
